This note sets out measurements from article doi:10.1101/2023.07.23.550228.

This experiment deals with GvpT (B. megaterium). The experiment can be described thus: SDS-PAGE and Western blot. Background: A western blot detects proteins with antibodies after separation by electrophoresis.

By stoichiometry N is commonly meant a count of units in the complex or per binding partner. Turning to GvpT (natural protein), the stoichiometry N is 2.
